Test results from paper PMC11680790, “Structural and functional determination of peptide versus small molecule ligand binding at the apelin receptor” (Nature Communications, 2024).

Tests used:
[1] = molecular target: wild-type apelin receptor tagged C-terminally with eGFP (human) (UniProt P35414); test: fluorescent ligand binding on cells (high content confocal imaging); CHO-K1 cells transiently transfected with receptor-eGFP; apelin647 300 nM or ELA647 1 µM in HBSS, 90 min, room temperature, washed and fixed; mean membrane fluorescence of eGFP-positive cells as % WT; non-specific binding with 10 µM [Pyr1]apelin-13
[2] = molecular target: apelin receptor NxStaR (stabilised human apelin receptor) (human) (UniProt P35414); test: SPR; Biacore 8K+; receptors immobilised on NTA chip (Ni-NTA capture and amine coupling); 10 °C; pH 6.0 buffer ([…] MES, […] NaCl, 0.02% DDM, 5% DMSO); single-cycle, four concentrations; 1:1 model
[3] = molecular target: apelin receptor NxStaR (stabilised human apelin receptor) (human) (UniProt P35414); test: SPR; Biacore 8K+; receptors immobilised on NTA chip (Ni-NTA capture and amine coupling); 10 °C; pH 7.5 buffer (0.01 M HEPES, […] NaCl, 0.02% DDM, 5% DMSO); single-cycle, four concentrations; 1:1 model
[4] = molecular target: apelin receptor NxStaR (stabilised human apelin receptor) (human) (UniProt P35414); test: SPR; Biacore T200; receptor immobilised on NTA chip (Ni-NTA capture and amine coupling); 10 °C; 0.01 M HEPES pH 7.5, […] NaCl, 0.02% DDM, 5% DMSO; single-cycle, 6.25-100 nM for Apelin-13 and ΔC2; 1:1 model

Chain of wild-type apelin receptor tagged C-terminally with eGFP (human) (P35414 whole entry): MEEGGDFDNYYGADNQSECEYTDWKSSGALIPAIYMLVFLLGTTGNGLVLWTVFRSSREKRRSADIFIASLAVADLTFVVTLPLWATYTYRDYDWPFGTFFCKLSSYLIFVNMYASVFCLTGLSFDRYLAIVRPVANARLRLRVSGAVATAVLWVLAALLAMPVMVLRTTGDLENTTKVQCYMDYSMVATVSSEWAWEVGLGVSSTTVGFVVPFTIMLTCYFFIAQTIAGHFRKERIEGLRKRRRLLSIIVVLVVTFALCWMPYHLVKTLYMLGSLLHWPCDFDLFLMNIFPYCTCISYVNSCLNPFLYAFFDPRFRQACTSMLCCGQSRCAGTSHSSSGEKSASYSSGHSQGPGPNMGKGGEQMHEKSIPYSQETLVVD

ELA647 fluorescently labelled peptide
membrane ELA647 fluorescence (% WT) [1]: 100 % WT

NXE'992, chimeric peptide (pyrazole-QRPRL[AIB]S[PipALA]VPFP)
Kd [2]: 21 nM
Kd [3]: 3.27 nM

apelin647 fluorescently labelled peptide
membrane apelin647 fluorescence (% WT) [1]: 100 % WT

apelin-13 ΔC2 (C-terminally truncated apelin-13 ending with M11) (peptide)
Kd [4]: 5.79 nM
